Experimental data as given in patent US20020161201A1.

Biological target: bovine submaxillary mucin type I (bovine)
Test: competition ELISA with biotinylated CC49 SCA, mucin

Row | Substance | Kd [nM]
1 | biotinylated CC49 SCA (scFv) | 6.2
2 | non-PEGylated CC49 SCA (Native-CC49) (scFv) | 3.6
